One substance from article PMC2872106 can be followed below.

pKd: −log10 of the molar value.

The target of experiment [1] is κI O18/O8 Y87H (human). The experiment in a line: AUC.
In experiment [2] the target is κI O18/O8 Y87H (human). The experiment in a line: NMR titration.

The pKd is −log10 of the Kd, conventionally taken in molar units. Read a high pKd as a low Kd.

As for κI O18/O8 Y87H (domain or fragment), the figures for the pKd in the experiment with κI O18/O8 Y87H (human) [1] and with κI O18/O8 Y87H (human) [2] were 3.38 and 3.46, respectively.
